From US20180186853A1 (HANMI PHARM, published 2018)
Non-standard residues stand in square brackets, D forms with d. No end group written: not given here. Aib = CC(C)(N)C(=O)O

Each binder was assayed against human glucagon receptor (human, UniProt P47871 26-477) (assay: cell-based or functional assay).
Chain of human glucagon receptor (P47871 26-477): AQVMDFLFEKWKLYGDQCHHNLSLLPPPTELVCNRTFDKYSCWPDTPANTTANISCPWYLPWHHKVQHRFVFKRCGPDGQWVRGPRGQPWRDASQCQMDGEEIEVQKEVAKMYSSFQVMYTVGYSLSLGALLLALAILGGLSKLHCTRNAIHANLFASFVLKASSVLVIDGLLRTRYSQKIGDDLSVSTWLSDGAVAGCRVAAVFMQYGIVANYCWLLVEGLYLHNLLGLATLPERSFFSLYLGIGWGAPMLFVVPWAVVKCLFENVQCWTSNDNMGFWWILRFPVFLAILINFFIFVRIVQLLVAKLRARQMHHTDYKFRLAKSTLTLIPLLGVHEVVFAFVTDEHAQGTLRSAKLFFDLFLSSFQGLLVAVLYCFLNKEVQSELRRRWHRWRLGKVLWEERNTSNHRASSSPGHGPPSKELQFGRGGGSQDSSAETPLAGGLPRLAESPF

Binder	In vitro Activity (Relative Activity of SEQ ID NO: 1, %), from cAMP EC50 [%]
HSQGTFTSDYSKYLDSCEAQDFVQWLMNT [glucagon derivative of SEQ ID NO: 5]	0.3
YSQGTFTSDYSKYLDSCEADDFVQWLMNT [glucagon derivative of SEQ ID NO: 7]	< 0.1
Y[Aib]QGTFTSDYSKYLDSCDAQDFVQWLINT [glucagon derivative of SEQ ID NO: 8]	< 0.1
HSQGTFTSDYSKYLDSCEADDFVQWLMNT [glucagon derivative of SEQ ID NO: 6]	< 0.1
HSQGTFTSDYSKYLDSCDAQDFVQWLMNT [glucagon derivative of SEQ ID NO: 4]	< 0.1
